From patent US20110301098A1, “TREATMENT FOR INTIMAL HYPERPLASIA AND RELATED CONDITIONS” (priority 2006, published 2011)
Like-named read-outs stand apart in the source and are kept apart here. Positions of bridges follow the written chain, without caps; N, C: chain ends. Non-standard residues stand in square brackets, D forms with d. Residues, ends and D or L forms follow the SMILES beside them. *: point of attachment. Hydrocinnamoyl = O=C(CCc1ccccc1)*; dCha = N[C@H](CC1CCCCC1)C(=O)O; Orn = NCCC[C@H](N)C(=O)O

Assays:
[1] = target: T1, C5a receptor (Mus musculus, UniProt P30993); experiment: C5a receptor antagonist treatment in the ApoE-/- mouse vein graft model
T1 sequence (P30993 1-351): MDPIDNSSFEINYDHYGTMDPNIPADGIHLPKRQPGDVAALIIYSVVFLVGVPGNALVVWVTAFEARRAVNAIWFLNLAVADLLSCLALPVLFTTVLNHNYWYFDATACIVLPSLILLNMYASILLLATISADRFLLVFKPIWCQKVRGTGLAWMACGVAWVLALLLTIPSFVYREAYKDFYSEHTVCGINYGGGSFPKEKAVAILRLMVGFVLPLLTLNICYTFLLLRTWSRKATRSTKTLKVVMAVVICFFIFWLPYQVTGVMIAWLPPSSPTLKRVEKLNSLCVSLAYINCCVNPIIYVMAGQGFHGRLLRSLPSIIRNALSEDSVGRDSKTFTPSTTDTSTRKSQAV
Procedure: (§1) Male ApoE^−/− mice, aged between 12 and 16 weeks, were used for all experiments. Mice were fed a standard chow diet, and received water and food ad libitum. Before surgery, mice were anesthetized by an intra-peritoneal injection with Midazolam (5 mg/kg, Roche), Medetomidine (0.5 mg/kg, Orion) and Fentanyl (0.05 mg/kg, Janssen). Cholesterol levels in serum were determined at the time of sacrifice.
(§2) Briefly, caval veins were harvested from genetically identical donor mice, and were preserved before implantation at 4° C. in 0.9% NaCl containing 100 U/ml of heparin. In the graft recipient, the right carotid artery was dissected and cut in the middle. A polyethylene cuff was placed at both ends of the artery. The artery was everted around the cuff and ligated with a silk 8.0 suture. The caval vein was sleeved over the two cuffs and ligated. Successful engraftment was confirmed by the presence of pulsations and turbulent blood flow within the vein graft. The whole procedure usually takes about 30 minutes.
(§3) Cross-sections of vein grafts were stained with hematoxylin-phloxine-saffron, using conventional methods. The intimal hyperplasia surface of the thickened vein grafts was measured using image analysis software (Qwin, Leica). For each vein graft, six equally spaced cross-sections were used to determine the degree of vessel wall thickening.
(§4) To identify macrophages and macrophage-derived foam cells, immunohistochemistry was performed using AIA31240 primary antibodies against mouse macrophages (1:3000, Accurate Chemical). The contribution of macrophages and foam cells to the intimal hyperplasia was measured by computer-assisted analysis (Qwin, Leica) as the area stained with antibody AIA31240, and expressed as a percentage of the total intimal hyperplasia surface.
(§5) In order to inhibit C5a function, 21 mice were randomly divided in to three groups, and were treated with the cyclic peptide C5a antagonists AcF-[OP-(D-Cha)WR] (AcF) or hydrocinnamate-[OP-(D-Cha)WR] (HC). […]

[2] = target: T1, C5a receptor; settings: in vivo
Procedure: as §1, §2, §3, §4, §5

[3] = system: PDGF receptor; settings: pretreatment of the vein grafts; cited from earlier work
[4] = system: vein grafts; experiment: Recombinant C5a applied to vein grafts in hypercholesterolaemic ApoE-/- mice; type: in vivo, mouse; settings: for intimal hyperplasia surface: control 0.24±0.02; for macrophage/foam cell content of intimal hyperplasia: control 17±2%
Procedure: 153: 1301-1310. […] The whole procedure usually takes about 30 minutes.
To examine the involvement of C5a in the development of vein graft thickening, we applied recombinant C5a in two concentrations (0.5 μg and 5 μg, dissolved in 100 μl 20% Pluronic gel, n=7 per group,) directly to the vein graft at the time of surgery. In the control group 100 μl of 20% Pluronic gel without C5a was applied.
Twenty-one mice were randomly divided into three groups. In the treatment groups, either 0.5 μg or 5 μg of E. coli-derived recombinant mouse C5a (HyCult Biotechnology) was dissolved in 0.1 ml of 20% Pluronic gel, and applied around the venous interposition at the time of surgery. In the control group 0.1 ml of 20% Pluronic gel was applied without C5a. Mice were sacrificed after 28 days.

In the case of `CC(=O)N[C@@H](Cc1ccccc1)C(=O)N[C@H]1CCCNC(=O)[C@H](CCCNC(=N)N)NC(=O)[C@H](Cc2c[nH]c3ccccc23)NC(=O)[C@@H](CC2CCCCC2)NC(=O)[C@@H]2CCCN2C1=O` [AcF, AcF-[OP-(D-Cha)WR]], the “decrease in vein graft thickening compared to control mice” value ([1]; 3 mg/kg/day s.c., 28 days after surgery) is reported as 53% and the “body weight or serum cholesterol” value ([1]; between the different treatment groups) is reported as “No differences”.

With `N=C(N)NCCC[C@@H]1NC(=O)[C@H](Cc2c[nH]c3ccccc23)NC(=O)[C@@H](CC2CCCCC2)NC(=O)[C@@H]2CCCN2C(=O)[C@@H](NC(=O)CCc2ccccc2)CCCNC1=O` [HC, hydrocinnamate-[OP-(D-Cha)WR]] (Hydrocinnamoyl-[Orn]P[dCha]WR; lactam 1-C) the “body weight or serum cholesterol” value [2] was “No differences”.

In the case of `Cc1ccc(C(=O)Nc2ccc(S(=O)(=O)O)c3cc(S(=O)(=O)O)cc(S(=O)(=O)O)c23)cc1NC(=O)c1cccc(NC(=O)Nc2cccc(C(=O)Nc3cc(C(=O)Nc4ccc(S(=O)(=O)O)c5cc(S(=O)(=O)O)cc(S(=O)(=O)O)c45)ccc3C)c2)c1` [Suramin], the neointimal hyperplasia [3] is listed as “significant reduction”.

B1: C5a: E. coli-derived recombinant mouse C5a (HyCult Biotechnology) (protein, UniProt P06684 679-755, looked up)
C5a anaphylatoxin: NLHLLRQKIEEQAAKYKHSVPKKCCYDGARVNFYETCEERVARVTIGPLCIRAFNECCTIANKIRKESPHKPVQLGR
modifications: C5a anaphylatoxin
For B1, the intimal hyperplasia surface ([4]; 0.5 μg C5a in 20% Pluronic gel applied to vein graft at surgery, 28 days) was 0.29±0.03 mm^2, the “macrophage/foam cell content of intimal hyperplasia” value ([4]; 0.5 μg C5a, 28 days) was 22±3% and the “body weight and serum cholesterol” value ([4]; 0.5 μg and 5 μg C5a vs control) was “did not differ”. The luminal area ([4]; 0.5 μg and 5 μg C5a vs control, 28 days) was “No significant differences”, the intimal hyperplasia surface ([4]; 5 μg C5a in 20% Pluronic gel applied to vein graft at surgery, 28 days) was 0.41±0.04 mm^2 and the “macrophage/foam cell content of intimal hyperplasia” value ([4]; 5 μg C5a, 28 days) was 33±2%.
